According to the DeepSol protein solubility set:

Assay: soluble on expression in E. coli; label from the status in PepcDB or PDB records

Sequence | soluble on expression in E. coli
MSLYLIVGAYPSTPQVMKNIKMTSDALKKKESLICLNVLSKYNPEKHSNTSKRLPVKFFSGVLIVLMNTDNWASLEKRFSSEIANWRSGGNVICIAIGELGKFKGNDTYYLKTLQIALMNVDDNWIPADSSYELTMLNYLHKHERSFIKPLRYDASNNDVFPDFCLTDIGSTELFPIEVFGMDTASYLARKVIKESYYNERYGKDGWASWEAPAGPLPICPIRPAVNYQMLLEGHHHHHH | not soluble
MHTIDVIDSHTAGEPTRVVLAGFPDLGDGDLAQCRERFRSDFDHWRSAIACEPRGSDTMVGALLLPPRDPSACTGVIFFNNVGYLGMCGHGTIGVVRTLAELGRIAPGQHRIETPVGTVGVALADDGTVSIDNVESYRHAAGVEVDVPGHGRVRGDVAWGGNWFFITEQAPCALGLAQQRELTAYTEAIRLALEAAGITGEAGGEIDHIEISGVAPDGSGAARNFVLCPGLAYDRSPCGTGTSAKLACLAADGKLAEGERWLQQGILGSAFEGSYRHSGRGIAPRISGHAFITARSQLLIDPADPFAWGIVALEHHHHHH | not soluble
MSGGSDQVKNMIYINGNRRGHCFITSGITFKEFASNIPSPLHQVLLLKHNFEWTDFHYHTLFEYVEEENIHKLIQAEIDEFDEFCWVDFDDASDLDELEPKEIAELLYLAHKKEPLARTFFPLLKNRFVYFSHDDGWYNKVYYRRIADFVGMLSKVIPYKLGAFGKKRFSFFQKSKIFPAISKELIMGLIPLMEDGLYIDLAGKIESRRGLEIPVYVVGSYESTDEVLDNIDELKEEATETGWLIFDKKEQEWQWVVD | not soluble
GMNAIRYTKRECKDEKKITEFLNKARTGFLGLSTNDQPYVIPLNFVWHNHAIYFHGASEGRKIKMIEANPEVCFTICEDLGTIVSPVPAHTDTAYMSVIIFGTIEPVSAIEEGTEAMQQMLDKYVPGYYHSPLAASHVEKYRSSLGSRTAIYKISCRERTAKVNEPIESLKFYPGRNVSVDKDSR | soluble
MGSDKIHHHHHHMAKGLFDRYIWLIDTIYRAGKITFEEINKRWLRTEMSNGEEIPLRTFHNHRKAIETMFDINIECNKRAGYYYYIENADDIDKDKIKKWLLNTFAINNLANESHRLKQRILFEDIPSGKQYLSSIIEAMLENRIIEITYQSYWKEEANTFTIEPFCVKVFKQRWYIIARSPYYDTIMIYALDRIQNLQVTDITFNYPSDFDPQSYFEFSFGIVVDEICNIDKIRIKVYGKKCQYIKALPLHHSQSEVETTKSYSIFEYLLKPTYDFCQELLSHGDEIEVLSPTSLKEQIKEIVKNMSRYYN | not soluble
MAHHHHHHMKTKVELKFLGGLESYLANKSKNYVSLEIESEEFNFENLIAYIRNHIIVDRKDVFSDFVMSDGNVKSCNVMIDDKEYSNYNLSDKGKIKPGIIVLINEYDWEILDTYTYKIKNNDKICFLSTLHGG | soluble
TSKKKRQRGSRTHGGGSHKNRRGAGHRGGRGDAGRDKHEFHNHEPLGKSGFKRPQKVQEEAATIDVREIDENVTLLAADDVAEVEDGGFRVDVRDVVEEADDADYVKVLGAGQVRHELTLIADDFSEGAREKVEGAGGSVELTDLGEERQAEAEETEDADADEE | soluble
MTKIGINGFGRIGRNVFRAALNNSEVEVVAINDLTDAKTLAHLLKYDTVHGTLNAEVSANENSIVVNGKEIKVIAERDPAQLPWSDYGVEVVVESTGRFTKKSDAEKHLGGSVKKVIISAPASDEDITVVMGVNHEQYDAANHNVVSNASCTTNCLAPFAKVLNEKFGVKRGMMTTIHSYTNDQQILDLPHKDLRRARAAAENMIPTSTGAAKAVALVLPELKGKLNGGAVRVPTANVSLVDLVVELDKEVTVEEVNAAFKAAAEGELKGILGYSEEPLVSIDYNGCTASSTIDALSTMVMEGNMVKVLSWYDNETGYSNRVVDLAAYMTSKGL | soluble
NQLSGLHSMEEQLAKKLQIKKCLVVQGDSDDTPWVREEMGRVAVEQLDMALTEKRNIVAVMGGSTMATVAEMMTTDFAKGRELLFVPGRGGIGEDLDNQANTICDKMATKTNTKHRVLYVPEQLGEEAYRSLLKEPAIQEGLRLVQSANAIILGIGDALAMAKRRHTGEDVLEKIIRRKAVGEAFGYYFDEQGEVVHKVPTFGLQFEDLAQIPHIIAVAGGTSKAKAIKSYMKSAPKNTILITDEGAAKSLLK | soluble
MFKRLMMVALLVIAPLSAATAADQSNPYKLMNEAAQKTFDRLKNEQPKIRANPDYLRDVVDQELLPYVQVKYAGALVLGRYYKEATPAQREAYFAAFREYLKQAYGQALAMYHGQTYQIAPEQPLGDATIVPIRVTIIDPNGRPPVRLDFQWRKNTQTGNWQAYDMIAEGVSMITTKQNEWSDLLRTKGIDGLTAQLKSISQQKITLDEKQLEHHHHHH | soluble
